Test results reported in article PMC9332313, “Folding and Binding Mechanisms of the SH2 Domain from Crkl” (Biomolecules, 2022).
Square brackets hold non-standard residues; d marks the D form. Ends that are not written are not given here. * marks the point of attachment. pY = N[C@@H](Cc1ccc(OP(=O)(O)O)cc1)C(=O)O; Dansyl = CN(C)c1cccc2c(S(=O)(=O)*)cccc12

How the values were obtained:
Details in all cases: both partners purified
[1] = target: T1, SH2 domain of Crkl protein (residues 1-111), wild type (UniProt P46109 1-111); assay: stopped-flow fluorescence kinetics (FRET); dansyl-Pax112-123 constant at 2 μM mixed with Crkl-SH2 2 to 10 μM (pseudo-first-order, kon); koff by displacement of the preincubated 2 µM complex with excess non-dansylated Pax112-123 (30 μM); 283 K; 50 mM BisTRIS pH 6.8, 0.5 M NaCl
T1 construct: Crkl adaptor protein, SH2 domain, residues 1-111; Subcloned in pET28b+; all experiments were done on the N-terminally His-tagged protein; also called Crkl-SH2; Crkl SH2 domain; source: E. coli BL21 (DE3), purified (HisTrap nickel column, desalting); not shown: His tag, N-terminal, kept
T1 sequence (P46109 1-111): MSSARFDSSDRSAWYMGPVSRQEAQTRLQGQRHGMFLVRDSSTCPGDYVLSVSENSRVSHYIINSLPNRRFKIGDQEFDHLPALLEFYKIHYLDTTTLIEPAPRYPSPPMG

[2] = target: T2, SH2 domain of Crkl protein (residues 1-111), H33A variant (UniProt P46109 1-111, H33A); assay: as above
T2 construct: Crkl adaptor protein, SH2 domain, residues 1-111, His33 replaced by alanine; Site-directed mutant of m1 (QuikChange); source: E. coli BL21 (DE3), purified (HisTrap nickel column, desalting); not shown: His tag, N-terminal, kept
T2 sequence (P46109 1-111 H33A): as the sequence (P46109 1-111) above, with H33A counted along it

[3] = target: T3, SH2 domain of Crkl protein (residues 1-111), H80A variant (UniProt P46109 1-111, H80A); assay: as above
T3 construct: Crkl adaptor protein, SH2 domain, residues 1-111, His80 replaced by alanine; Site-directed mutant of m1 (QuikChange); source: E. coli BL21 (DE3), purified (HisTrap nickel column, desalting); not shown: His tag, N-terminal, kept
T3 sequence (P46109 1-111 H80A): as the sequence (P46109 1-111) above, with H80A counted along it

[4] = target: T1, SH2 domain of Crkl protein (residues …); assay: stopped-flow fluorescence kinetics (FRET); dansyl-Pax112-123 constant at 2 μM mixed with Crkl-SH2 2 to 10 μM (pseudo-first-order, kon); koff by displacement of the preincubated 2 µM complex with excess non-dansylated Pax112-123 (30 μM); 283 K; 50 mM TrisHCl pH 8.5, 0.5 M NaCl
[5] = target: T2, SH2 domain of Crkl protein (residues …); assay: as above
[6] = target: T4, SH2 domain of Crkl protein (residues 1-111), H91A variant (UniProt P46109 1-111, H91A); assay: as above
T4 construct: Crkl adaptor protein, SH2 domain, residues 1-111, His91 replaced by alanine; Site-directed mutant of m1 (QuikChange); source: E. coli BL21 (DE3), purified (HisTrap nickel column, desalting); not shown: His tag, N-terminal, kept
T4 sequence (P46109 1-111 H91A): as the sequence (P46109 1-111) above, with H91A counted along it

[7] = target: T1, SH2 domain of Crkl protein (residues …); assay: stopped-flow fluorescence kinetics (FRET); dansyl-Pax112-123 constant at 2 μM mixed with Crkl-SH2 2 to 10 μM (pseudo-first-order, kon); koff by displacement of the preincubated 2 µM complex with excess non-dansylated Pax112-123 (30 μM); 283 K; 50 mM sodium-HEPES pH 7.5, 0.5 M NaCl
[8] = target: T2, SH2 domain of Crkl protein (residues …); assay: as above
[9] = target: T3, SH2 domain of Crkl protein (residues …); assay: as above
[10] = target: T4, SH2 domain of Crkl protein (residues …); assay: as above

Kd [1]: 2400 ± 100 nM
koff [1]: 21.4 ± 0.2 s⁻¹
kon [1]: 8.9e+06 ± 400000 M⁻¹ s⁻¹
Kd [2]: 3400 ± 200 nM
koff [2]: 22.4 ± 0.5 s⁻¹
kon [2]: 6.6e+06 ± 400000 M⁻¹ s⁻¹
Kd [3]: 3100 ± 200 nM
koff [3]: 21.6 ± 0.4 s⁻¹
kon [3]: 7.1e+06 ± 400000 M⁻¹ s⁻¹
Kd [4]: 3500 ± 300 nM
koff [4]: 41.6 ± 0.9 s⁻¹
kon [4]: 1.2e+07 ± 1.1e+06 M⁻¹ s⁻¹
Kd [5]: 2100 ± 300 nM
koff [5]: 26.9 ± 2.8 s⁻¹
kon [5]: 1.26e+07 ± 1.4e+06 M⁻¹ s⁻¹
Kd [6]: 2600 ± 100 nM
koff [6]: 34.9 ± 0.5 s⁻¹
kon [6]: 1.36e+07 ± 600000 M⁻¹ s⁻¹
Kd [7]: 2800 ± 400 nM
koff [7]: 28.6 ± 0.5 s⁻¹
kon [7]: 1.04e+07 ± 1.4e+06 M⁻¹ s⁻¹
Kd [8]: 2300 ± 500 nM
koff [8]: 24.6 ± 3.2 s⁻¹
kon [8]: 1.08e+07 ± 1.9e+06 M⁻¹ s⁻¹
Kd [9]: 2000 ± 200 nM
koff [9]: 27.8 ± 2.3 s⁻¹
kon [9]: 1.36e+07 ± 1.1e+06 M⁻¹ s⁻¹
Kd [10]: 2600 ± 100 nM
koff [10]: 25.9 ± 0.3 s⁻¹
kon [10]: 1e+07 ± 500000 M⁻¹ s⁻¹
B1: dansylated Pax_(112–123) peptide (Dans-GEEEHV-pY-SFPNK) (peptide)
peptide: Dansyl-GEEEHV[pY]SFPNK
notes: The dansyl group is the FRET acceptor of Trp14 of the SH2 domain; source: synthetic peptide, bought: GenScript
